40 sequences from the nanobody polyreactivity screen of Harvey et al. (2022) can be followed below.

The nature of the data set: yeast display, Sf9 membrane polyspecificity reagent, FACS + sequencing; frameworks hold sequencing errors. Put shortly: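 Using colony PCR, genes from sorted yeast display clones were amplified, then sequenced on MiSeq at 2 × 250 and filtered by CDR length. The clones had been stained with 10% biotinylated, detergent-solubilized Sf9 membrane reagent for 1 hour at 4 °C and sorted by FACS into low and high (top ~1%) gates on anti-HA and streptavidin fluorescence. Polyreactivity labels come from the gate of origin.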
On to “QVQLVESGGGLVPAGGSLRLSCAASGRISDLYAMGCYRQAPGKETEVVAGSTWRGGSTYYADSVKGRFTISRDNAKNTVYLQMNSLKPEDTAVYYCNAVWVQQVVGDGKRTWNFWYDYWGQGTQVTVSS”, for which the “polyreactivity (PSR sort gate)” value is listed as “low polyreactivity”.

As for “QVQLVESGGGLVPAGGSLRLSCAASGRTFGYYAMGWYRPAPGKERELVAAITSNGGSTYYADSVKGRFTISRDNAKNTVYLQMNSLKPEDTAVYYCNTGRRNRLYDYDYWGQGTQVTVSS”, the “polyreactivity (PSR sort gate)” value was “high polyreactivity”.

“QVQLVESGGGLVPAGGSLRLSCAASGSTFIPNTMGWYRQAPGKERELVAAISRRGGSTNYADSVKGRFTISRDNAKNTVYLQMNSLKPEDTAVYYCAAVSPRRYRYDYWGQGTQVTVSS”: the “polyreactivity (PSR sort gate)” value is reported as “low polyreactivity”.

As for “QVQLVESGGGLVPAGGSLRLSCAASGSTFPVYAMGWYRPAPGTERELVAAINSGVSTNYADSVKGRFTMSRDNANTTVYLQRNSLKPEDTAVYYCNTSYVGYPDLGINYEFDYWGQGTQVTVSS”, the “polyreactivity (PSR sort gate)” value is “low polyreactivity”.

Consider “QVQLVESGGGLVPAGGSLRLSCAASGSTFYIYAMGWYRQAPGKERELVAAISRRGSSTYYADSVKGRFTISRDNAKNTVYLQMNSLIPEDTAVYYCAASQRHDHYYWGQGTQVTVSS”, for which the “polyreactivity (PSR sort gate)” value was “high polyreactivity”.

As for “QVQLVESGGGLVQAAGSLRISCAASGRTFATNAMGWYRQAPGKERELVAVISASGGSTYYADSVKGRFTISRDNAKNTVYLQMNSLKPEDTAVYYCAADVYRRYDYWGQGTQVTVSS”, the “polyreactivity (PSR sort gate)” value is “high polyreactivity”.

Consider “QVQLVESGGGLVQAAGSLRLICAASGRTFDSYAMGRYRQAPGKEREFVAAISYSGTSTYYADSVKGRFTISRDDAKNTVYLQMNSLKPEDTAVYYCAKEYIFRLWGQGTQVTVSS”, for which the “polyreactivity (PSR sort gate)” value is on record as “low polyreactivity”.

For the sequence “QVQLVESGGGLVQAAGSLRLICDASGFTFDLYAMGWYRQAPGKERELVAAISWSGGSTRYADSVKGGFTISRDNSKNTVYLQMTSLKPEDTALYYCARQPRLYFKVKLYGYWGQGTQVTVSS”, the “polyreactivity (PSR sort gate)” value is “high polyreactivity”.

Regarding “QVQLVESGGGLVQAAGSLRLSCAASGLTFFGYAMGWYRQAPGKERELVAAISSSGTRTYYADSVKGRFTISRDHAKNTVYLQMNSLKPEDTAFYYCASGRYQEYDYWGQGTQVTVSS”, the “polyreactivity (PSR sort gate)” value is “high polyreactivity”.

Consider “QVQLVESGGGLVQAAGSLRLSCAASGLTFPFYTMGWYIQAPGKARELVAAISRRGGSTYYADSVKGRFTISRDNAKNTVYLQMNSLKPEDTAVYYCAADKYSWYDYWGQGTQVTVSS”, for which the “polyreactivity (PSR sort gate)” value was “low polyreactivity”.

“QVQLVESGGGLVQAAGSLRLSCAASGRIFFAYAMGWNRQEPGKERELVASITSGGSTNYADSVKGRFTISRDNAKNTVYLQMNSLKPEDTAVYYCAARSRFSNLYVRFYYWGQGTQVTVSS”: the “polyreactivity (PSR sort gate)” value was “high polyreactivity”.

Consider “QVQLVESGGGLVQAAGSLRLSCAASGRIFYSYAMGWYRQAPGKERELVAASSFSVGSTYYADSVKGRFTISRDNAKNTVYLQMNSLKPEDTAVYYCAASLGFPGYEYWGQGTQVTVSS”, for which the “polyreactivity (PSR sort gate)” value was “low polyreactivity”.

In the case of “QVQLVESGGGLVQAAGSLRLSCAASGRTFFPYAMGWYRQAPGKEREFVAAITKTDDSTYYADSVKGRFTISRDNAKNTVYLQMNSLKPEDSAVYYCNAGDTQIRFYYWGQVTQVTVSS”, the “polyreactivity (PSR sort gate)” value is “low polyreactivity”.

As for “QVQLVESGGGLVQAAGSLRLSCAASGRTFVFYAMGWYRQAPGKERELVAAISDGDRTNYADSVKGRFTISRDNAKNTVYLQMNSLKPEDTAVYYCAADREFWWAVVYTYEYYYWGQGTQVTVSS”, the “polyreactivity (PSR sort gate)” value was “low polyreactivity”.

For the sequence “QVQLVESGGGLVQAAGSLRLSCAASGSIAMGWYRQAPGKERELVATISSSGGSTYYADSVKGRFTISRDNAKNTVYLQMNSLKPEDTAVYYCAAGGYTLYHAWGYYWGQGTQVTVSS”, the “polyreactivity (PSR sort gate)” value was “low polyreactivity”.

Consider “QVQLVESGGGLVQAAGSLRLSCAASGSTFAANAMGWYRQAPGKERELVAAITWTGGSTYYADSVKGRFTISRDNAKNTVYLQMNSLKPEDTAVYYCARRSYGRYYYRYRAYDYWGQGTQVTVSS”, for which the “polyreactivity (PSR sort gate)” value is “high polyreactivity”.

Consider “QVQLVESGGGLVQAAGSLRLSCAASVNTFFKNAMGWYRQAPGKERELVAAISKGGGSTYYADSVKGRFTISRDNAKNTVYLQMNSLKPEDTAVYYCAADTFGVYASTYDYWGQGTQVTVSS”, for which the “polyreactivity (PSR sort gate)” value was “high polyreactivity”.

With “QVQLVESGGGLVQAAGSRRLSCDASGRIFGWYAMGWSRQAPGKERELVAAITNSGGSPYCADSVKGRFTISRDNAKNTVYLERKSLIPEDTAVYYCARSFSFYGKRKYDYWGQGTQVTVSS”, the “polyreactivity (PSR sort gate)” value is “high polyreactivity”.

As to “QVQLVESGGGLVQAEGSLRLSCAASGRTFRPYALGWYRQAPGKERELVAVITSGGRTDYADSVKGRFTISRDNAKNTVYLQMNSLKPEDTAVYYCNAGAVYWGYSRGWYERDYWGQGTQVTVSS”, the “polyreactivity (PSR sort gate)” value is “high polyreactivity”.

For “QVQLVESGGGLVQAGASLRLCCAASGRILRRYAMGWYRQAPGKEWELVAAITARTGSTYYADSVKGRFTISRDTAKYTVYLQMNSLKPEDTAVYYCNAVNELTGGVIFNYWGQGTQVTVSS”, the “polyreactivity (PSR sort gate)” value is on record as “high polyreactivity”.

Take “QVQLVESGGGLVQAGASLRLSCAASGCTFVVNAMGWYRQAPGKERELVAAITDGSSTNYADSVKGRFTISRDNAKYTVYLQMTRLIRQDTAVYFCAAVPYIDLDDINVEHPQYGYWGQGTQVTVSS”: the “polyreactivity (PSR sort gate)” value is recorded as “low polyreactivity”.

“QVQLVESGGGLVQAGASLRLSCAASGFIFRHYAMGWYRQAPGKARELVAVINWSGSSTYYADSVKGRFTISRDNAKNTVYLQMNSLKPEDTAVYYCAVRSLRVDKYGYWGQGTQVTVSS”: the “polyreactivity (PSR sort gate)” value is “high polyreactivity”.

As to “QVQLVESGGGLVQAGASLRLSCAASGFTFGTYAMGWYRQAPGKERELVAAITKSGVRTYYADSVKGRFTISRDNAKNTVYLQMNSLKPEDTAVYYCNARGHSSLSTIVDFWGQGTQVTVSS”, the “polyreactivity (PSR sort gate)” value is reported as “high polyreactivity”.

In the case of “QVQLVESGGGLVQAGASLRLSCAASGFTLYSYAMGWYRQAPGKERELDASISTGGSTYYADSVKGRFTISRDNAKNTVYLQMNSLKPVDTAVYYSAVDGWYYTSWSFYRRYEYWGQGTQVSVSS”, the “polyreactivity (PSR sort gate)” value is reported as “high polyreactivity”.

Turning to “QVQLVESGGGLVQAGASLRLSCAASGGIFVVYGMGWYRQAPGNERELVAAISWRGGSTYYADSVKGRFTISRDNAKNTVYLQMNSLKPEDTAVYYCAADQYYGGYDYWGQGTQVTVSS”, the “polyreactivity (PSR sort gate)” value is listed as “low polyreactivity”.

On to “QVQLVESGGGLVQAGASLRLSCAASGIIYAYNAMGWYRPAPGKERELVATITDSGGSTSYADSVKGRFTISRDNAKNTVYLQMNSLKPEDTAVYYCAVLPVYWYWRNYVYLSGYDYWGQGTQVTVSS”, for which the “polyreactivity (PSR sort gate)” value is on record as “low polyreactivity”.

On to “QVQLVESGGGLVQAGASLRLSCAASGLIFYFYAMGWYRQAPGKERELVATIRSSTGSTYYADSVKGRFTISRDNAKNTVYLQMNSLKPEDTAVYYCNAGIKRYEWYQFDYWGQGTQVSVSS”, for which the “polyreactivity (PSR sort gate)” value was “low polyreactivity”.

For “QVQLVESGGGLVQAGASLRLSCAASGRIFWHNAMGWYRQAPGKERELVAAMTRGGSTYYADSVKGRFTISRDNAKNTVYLQMNSLKPEDTAVYYCATLGSLRYYWPGYDYWGQGTQVTVSS”, the “polyreactivity (PSR sort gate)” value is reported as “low polyreactivity”.

For the sequence “QVQLVESGGGLVQAGASLRLSCAASGRILKTYAMGSYRQAPGKERELVAAITGRGGRTYYADSVKGRFTISRDNAKNTFYLQMISLKPEDTAVYYCAAYYGPSRSLYYYWGQGSQVTVSS”, the “polyreactivity (PSR sort gate)” value is recorded as “high polyreactivity”.

For “QVQLVESGGGLVQAGASLRLSCAASGRTFLRYAMGWYRQAPGKERELVAAISSRGGSTYYADSVKGRFTISRDNAKNTVYLQMNSLIPEDTAVYYCAARGCRSQVPVRVFRYDFWGQGTQVTVSS”, the “polyreactivity (PSR sort gate)” value is given as “high polyreactivity”.

For the sequence “QVQLVESGGGLVQAGASLRLSCAASGRTFRYYDMGWSRQEPGKEREFVAAITWRGGSTYFADSVKGRFTISRDNAKNTVFLQMNSLKPEDTAVYYCATDSLRLYGGKRDLYFWGQGTQVTVSS”, the “polyreactivity (PSR sort gate)” value is “low polyreactivity”.

On to “QVQLVESGGGLVQAGASLRLSCAASGRTFYNYAMGWYRQARGKEREFVASMTTSGGSTYYADSVKGRFTISRDNAKNTVYLQMNSLKPEDTAVYYCARRAYRSWTGNSYEYYYWGQGTQVTVSS”, for which the “polyreactivity (PSR sort gate)” value is “high polyreactivity”.

“QVQLVESGGGLVQAGASLRLSCAASGRTSYRYAMGWNRQAPGKERELVAAISFGGGSTYYADSVKGRFPISRDNAKNTVYLQMNSLKPEDTAFYYCATDRVKYRNIYTDTGFDYWGQGTQVTVSS”: the “polyreactivity (PSR sort gate)” value is listed as “high polyreactivity”.

As for “QVQLVESGGGLVQAGASLRLSCAASGSTFARYAMGWYRQAPGKERELVAAISSSGRTYYADSVKGRFTISRDNAKNSVYLQMNSLKPEDTAVYYCNAPVARGEASYYWGQGTQVTVSS”, the “polyreactivity (PSR sort gate)” value is “high polyreactivity”.

For “QVQLVESGGGLVQAGASLRLSCAASGSTFGGNAMGWSRQAPWKERELVAAINWTGGSTYADSVKGRFTISRDNAKNTVYLQMNRLKPEDTAVYYCAIRATWGSSTQYLQNQEYDYWGQGSQVTVSS”, the “polyreactivity (PSR sort gate)” value is on record as “low polyreactivity”.

In the case of “QVQLVESGGGLVQAGASLRLSCAASGSTFGYYAMGWNRQAPGKERELVAAISTRGGSTYYADSVKGRFTISRDNAKTTVYLQMNSLKPEDIAVYYCAVLGTPYGLNDYCGQGTQVTVSS”, the “polyreactivity (PSR sort gate)” value was “high polyreactivity”.

As for “QVQLVESGGGLVQAGASLRLSCAASGSTFLQNAMGWYRQAPGKVRELVAAITRSGGSTNYADSVKGRFKISRDNAKNTVYLQKNSLKPEDTAVYYCPAGGRRYDDDYWGQGTQVTVSS”, the “polyreactivity (PSR sort gate)” value is recorded as “high polyreactivity”.

Regarding “QVQLVESGGGLVQAGASLRLSCAASGYTLDNYAMGWYRQAPWKERELVAGITFSGGSTFYADSVKGRFTISRDNAKNTVYLQMNRLKPEDTAVYYCAAEAEFQADHKYGYWGQGTQVTVSS”, the “polyreactivity (PSR sort gate)” value was “low polyreactivity”.

In the case of “QVQLVESGGGLVQAGASLRLSCADSGRISESNDMGWNRQAPGKQRELVAAISSSGGSTYYADSVMGRFPISRDNAKNTVYLQMNSLKPEDTALYYCNAVYYRTVLKIGVYEYDYWGQGTQVTVSS”, the “polyreactivity (PSR sort gate)” value is “low polyreactivity”.

As for “QVQLVESGGGLVQAGASLRLSCAPSGLIFTYNARGWYRQAPGKERELVAAITYRVSSTYYADSVKGRFTISRDNAKNSVYLQMNSLKPEDTAVYYCAAPRLIRFVTYYSWGLGTQVTVSS”, the “polyreactivity (PSR sort gate)” value is recorded as “high polyreactivity”.
